We go through one molecule from paper PMC4948679.

The target of this assay is Ab2/3H6, murine/wild-type anti-idiotypic antibody (wt3H6) (mouse (developed from mouse hybridoma)). Put plainly: BLI.

“And” between values parts separate entries of the source, which are not always exact repeats. Identical values can stand only once.

B1: broadly neutralizing anti-HIV-1 antibody 2F5 (antibody, V domains shown)
VH: RITLKESGPPLVKPTQTLTLTCSFSGFSLSDFGVGVGWIRQPPGKALEWLAIIYSDDDKRYSPSLNTRLTITKDTSKNQVVLVMTRVSPVDTATYFCAHRRGPTTLFGVPIARGPVNAMDVWGQGITVTISS
VL: ALQLTQSPSSLSASVGDRITITCRASQGVTSALAWYRQKPGSPPQLLIYDASSLESGVPSRFSGSGSGTEFTLTISTLRPEDFATYYCQQLHFYPHTFGGGTRVDVR
B1: the response level is 3.5 nm and 3.4 nm.
